Measured values reported in US20260027179A1, “ANTI-SYNUCLEINOPATHY PEPTIDE AND METHODS TO TREAT NEURODEGENERATIVE DISEASES” (University of British Columbia, priority 2021, published 2026).

Key:
[1] = target: T1, α-synuclein (Mus musculus, UniProt O55042); test: MPTP mouse model, α-synuclein immunoblotting of brain tissue; type: in vivo; conditions: MPTP mice, 6 μmol/kg i.p. twice a day for 12 days, immunoblot
T1 construct: tissue Charles River; host or cells: ventral midbrain and striatum of C57BL/6 mice
Protocol: C57BL/6 mice were i.p. injected with 30 mg/kg parkinsonian toxin MPTP (or saline as control), once per day for 5 consecutive days, to induce dopaminergic neuron damage. The effects of MPTP administration on mouse rotarod performance and damage to dopaminergic neurons were then analyzed 1 week after the last injection of MPTP. To determine the effect of α-synuclein knockdown in protecting dopaminergic neurons against MPTP, the Tat-βsyn-degron peptide or its control Tat-βsyn (6 μmol/kg; i.p.) was used in some animals twice a day for 12 days, beginning the first day of MPTP injection. […] The striatum is a region that receives dopaminergic neuronal projections from the substantia nigra and is also deeply affected in PD. […]
(§1) Brain tissues or cultured cells were lysed on ice in the lysis buffer and then the solution was centrifuged at 14,000 rpm for 10 min at 4° C. Next, the supernatant was collected and protein concentrations were determined using a BCA protein assay kit (Thermo Scientific, 23227). […] The band density of each protein was quantified by the Bio-Rad Quantity One software and the relative optical density was analyzed relative to the loading control β-actin on the same membrane.

[2] = test system: 14-3-3; test: 14-3-3 level in cortical cultures, immunoblot; type: cell-based, rat; conditions: 50 μM, 24 hrs
Protocol: (§2) Primary rat neuron cultures were prepared from embryos of pregnant Sprague-Dawley rats (E18). The experimental protocol was approved by the University of British Columbia Animal Care Committee. Briefly, the cortical tissue or ventral midbrain tissue was isolated into ice cold HBSS (Invitrogen, 14170-112) and then digested with 0.25% trypsin-EDTA at 37° C. for 30 min. After washing with warm DMEM (supplemented with 10% FBS) three times, neurons were suspended in neuron culture media and dissociated by trituration using varying sizes of pipettes. Neurons were then centrifuged, and the pellet was re-suspended in culture media, washed twice with culture media, and plated on the poly-D-lysine-coated plates. Neuron culture was maintained in the 37° C. incubator with 95% O2 and 5% CO2. The morning after culturing, 2/3 of the neuron culture media was replaced with fresh neuron culture media. Media was then replaced every 3-4 days. […]
as §1

[3] = target: T2, purified recombinant human α-synuclein (Homo sapiens, UniProt P37840); test: Biacore peptide-protein binding assay; conditions: 0.20-12.50 μM peptide, report point 20 seconds into dissociation
T2 construct: His (histidine tag) (N); purchased Sigma S7820-500UG
Protocol: Biacore experiments were performed using a Biacore 3000 instrument (GE Healthcare Biosciences, Upsala, Sweden) and HBS running buffer, pH 7.4, containing 10 mM HEPES, 150 mM NaCl, 3 mM EDTA, and 0.005% surfactant P20. A research-grade CM5 sensor chip was activated with a mixture containing equal molar amounts of EDC (N-ethyl-N′-(dimethylaminopropyl) carbodiide and NHS (N-hydroxysuccinimide). Purified recombinant human α-synuclein (N-terminal histidine tagged, Sigma, S7820-500UG), diluted in sodium acetate pH 3.1, was then injected and covalently coupled to a flow cell of the sensor chip surface by amide bonding. Residual unreacted sites were blocked with ethanolamine. A reference surface, to account for non-specific binding, was similarly generated by activating and blocking an adjacent flow cell. Approximately 1500 resonance units (RU), equivalent to a surface concentration of 1500 pg/mm^2 of α-synuclein, was immobilized.
To ascertain the binding interaction between α-synuclein knockdown peptides and α-synuclein, synthetic Tat-βsyn-degron peptide or control tat peptide was serially diluted and sequentially injected over the active surface containing immobilized α-synuclein and the reference surface for 3 minutes at a flow rate of 30 μl/minute. The peptides were then allowed to dissociate for 3 minutes during which time HBS running buffer was injected. The resultant sensorgrams were double-referenced by subtracting out the binding on the reference surface and the response from the HBS blank buffer control. Binding response report points were collected 20 seconds into the dissociation phase of the interaction at time 200 seconds, which represents a stable binding response and excludes bulk refractive index changes and nonspecific binding.

[4] = test system: β2/3 subunit of the GABAA receptor; test: GABAA receptor β2/3 subunit level in cortical cultures, immunoblot; type: cell-based, rat; conditions: 50 μM, 24 hrs
Protocol: as §2, §1

YGRKKRRQRRRRTKSGVYLVGRRRG (The sequence is synthesized (YGRKKRRQRRRRTKSGVYLVGRRRG)) [Tat-βsyn-degron]
α-synuclein in striatum [1]: induced significant α-synuclein degradation
α-synuclein in substantia nigra-containing ventral midbrain [1]: induced significant α-synuclein degradation
expression level of 14-3-3 [2]: did not affect the expression levels
binding response to immobilized α-synuclein [3]: robust and similar binding
expression level of β2/3 subunit of the GABAA receptor [4]: did not affect the expression levels
